Data: article PMC7909649, “Eukaryotic translation initiation factor 5A and its posttranslational modifications play an important role in proliferation and potentially in differentiation of the human enteric protozoan parasite Entamoeba histolytica” (PLoS Pathogens, 2021)

Target: T1, Entamoeba histolytica deoxyhypusine synthase 1 (EhDHS1) with amino-terminal His-tag, co-expressed with EhDHS2 (Entamoeba histolytica, UniProt C4LXB8 1-331)
T1 construct: Deoxyhypusine synthase isotype 1 (EhDHS1) of Entamoeba histolytica, EHI_098350, XP_653614; the catalytically active isotype; also called His-tag DHS1; EHI_098350; source: E. coli BL21 (DE3), co-expressed with EhDHS2 from pETDuet-EhDHS1/2; in lysate and copurified on Ni2+-NTA; not shown: His tag, N-terminal, kept
T1 sequence (looked up): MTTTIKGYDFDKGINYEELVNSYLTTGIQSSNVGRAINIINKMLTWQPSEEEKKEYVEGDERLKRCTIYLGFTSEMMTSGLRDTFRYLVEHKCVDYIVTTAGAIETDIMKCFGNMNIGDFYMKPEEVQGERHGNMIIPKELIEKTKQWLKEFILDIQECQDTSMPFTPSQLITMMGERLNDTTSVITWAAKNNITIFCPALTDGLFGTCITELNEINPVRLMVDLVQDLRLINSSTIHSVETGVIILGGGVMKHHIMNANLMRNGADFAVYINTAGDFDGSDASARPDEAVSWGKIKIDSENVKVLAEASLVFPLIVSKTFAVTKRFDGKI
Experiment: pull-down; Co-expression of His-EhDHS1 and EhDHS2-S-tag in E. coli BL21 (DE3); lysate (50 mM Tris-HCl pH 8.0, 300 mM NaCl, 10 mM imidazole, 0.1% Triton X-100) on Ni2+-NTA resin, 1 hr at 4°C; washed with 10-50 mM imidazole, eluted with 100-300 mM imidazole; immunoblot with anti-His and anti-S tag antibodies
Details: partners not purified

B1: Entamoeba histolytica deoxyhypusine synthase 2 (EhDHS2) with carboxyl-terminal S-tag, co-expressed with EhDHS1 (natural protein, UniProt C4M2N7 1-336, looked up)
chain: MSITGEEFAKVTSKVLGESKEYKGEKCIGYDFDNGVDFNKVMEKMKYTGFQALNLGLCIEQVNEMRKNHAKIFLGMSSNIVSSGLREVIHYLVKNKFVDAIVVTAGGIEEDFIKTMHPTLLGDFYFKGKELYPNGYNRIGNLILPNSNYCEFEDWMDPLLLECLKEQNEHGVHWTPSKLVHKMGESINNESSIYYWAAKNNIPVFSPAITDGSIGDMIFFFSYKNEGLVLDLVQDVIKIDEMAFNAEKVGCLLVGAGIAKHHILNAMKRRGGCDYCAMLSTSIECDASDAGSEIAADRTKGFFKPECNPAKVIGDATILLPLIVASTFAQKEEPTK
notes: Deoxyhypusine synthase isotype 2 (EhDHS2) of Entamoeba histolytica, EHI_006030, XP_653426; stop codon removed to fuse the C-terminal S-tag of pETDuet; also called S-tag DHS2; EHI_006030; source: E. coli BL21 (DE3), co-expressed with EhDHS1 from pETDuet-EhDHS1/2; in lysate and copurified on Ni2+-NTA; not shown: S-tag, C-terminal, kept
  stoichiometry N: 1 EhDHS1:EhDHS2
